We go through 1 substance from paper PMC12851578.

Several values for one entry are separate records, joined by “and”; a condition that tells them apart may be missing. Equal entries are not always repeated.

For the experiment, the target named is actin purified from muscle (F-actin) (Bos taurus (ground beef)) (UniProt P68138). As to the kind of experiment: co-sedimentation.

As for “Lfat1 ABD [change], recombinant (from UniProt Q5ZVQ3 138-355) (domain or fragment)”, the Kd is 19.1 µM and 16.3 µM and 63.7 µM.
